In the assay the target is recombinant soluble CD146 (UniProt P43121). Kind of assay: ELISA; in-house ELISA: binding of αvβ3 to rsCD146, dissociation constant estimated; methods in Additional file 1, not shown.

As to “integrin αvβ3 (protein used in the in-house ELISA) (from UniProt P06756 31-1048; P05106 27-788) (receptor)”, the Kd (commonly the concentration at which binding is half-saturated) was 1.8 nM.
